Results reported in patent US20190338048A1.
Like-named read-outs stand apart in the source and are kept apart here. One block for each substance: values may come before it.

What was measured:
[1] = target: SGN-CD19a kappa light chain S121K_Q124R_T178R (L2 of design 3890, system B); test: SMCA LC-MS
[2] = target: SGN-CD19a kappa light chain S176K_T178K (L2 of design 3122, systems B and C); test: SMCA LC-MS
[3] = target: SGN-CD19a kappa light chain S176K_T178K (L2 of design 3122, systems B and C); test: SMCA LC-MS; remark: listed apart in the source
[4] = target: CR8071 lambda light chain V133D_Y178T (L1 of designs 3113 and 3122, system C); test: SMCA LC-MS
[5] = target: CR8071 lambda light chain V133D_Y178T (L1 of designs 3113 and 3122, system C); test: SMCA LC-MS; remark: listed apart in the source
[6] = target: CR8071 lambda light chain E124Q_T131R (L1 of design 3025, system C); test: SMCA LC-MS
[7] = target: CR8071 lambda light chain L1 with S176E_Y178E; test: SMCA System C: four chains co-expressed, protein A, LC-MS
[8] = target: SGN-CD19a kappa light chain S131D_V133G_T178F (L2 of design 3025, systems B and C); test: SMCA LC-MS
[9] = target: SGN-CD19a kappa light chain S131D_V133G_T178F (L2 of design 3025, systems B and C); test: SMCA LC-MS; remark: listed apart in the source
[10] = target: SGN-CD19a kappa light chain Q124R_Q160K_T178R (L2 of design 3878, systems B and C); test: SMCA LC-MS
[11] = target: SGN-CD19a kappa light chain Q124R_Q160K_T178R (L2 of design 3878, systems B and C); test: SMCA LC-MS; remark: listed apart in the source
[12] = target: Design 3890 L1: CR8071 lambda light chain S122D_K129T_S180E; test: SMCA: H1, L1, H2, L2 co-expressed, protein A, LC-MS
[13] = target: Design 3898 L2: SGN-CD19a kappa light chain Q124R_T178R; test: as above
[14] = target: Design 3898 L2: SGN-CD19a kappa light chain Q124R_T178R; test: as above; remark: listed apart in the source
[15] = target: SGN-CD19a kappa light chain L2 with Q124E_V133D; test: SMCA System B: four chains co-expressed, protein A, LC-MS
[16] = target: SGN-CD19a kappa light chain L2 with Q124E_V133D; test: SMCA System C: four chains co-expressed, protein A, LC-MS
[17] = target: Design 3898 L1: CR8071 lambda light chain K129T_Y178E_S180E; test: SMCA: H1, L1, H2, L2 co-expressed, protein A, LC-MS
[18] = target: Design 3931 L2: SGN-CD19a kappa light chain V133G_S176D; test: as above
[19] = target: Design 3931 L2: SGN-CD19a kappa light chain V133G_S176D; test: as above; remark: listed apart in the source
[20] = target: SGN-CD19a kappa light chain L2 with V133G_S176D; test: SMCA System B: four chains co-expressed, protein A, LC-MS
[21] = target: SGN-CD19a kappa light chain L2 with V133G_S176D; test: SMCA System C: four chains co-expressed, protein A, LC-MS
[22] = target: Pertuzumab kappa light chain V133G_S176D_T180E (L2), N-terminal HA tag; test: LCCA, SPR of light chain tags
[23] = target: Pertuzumab kappa light chain V133G_S176D_T180E (L2), N-terminal HA tag; test: LCCA, SPR of light chain tags; remark: listed apart in the source
[24] = target: Pertuzumab kappa light chain V133G_S176D_T180E (L2), N-terminal HA tag; test: LCCA, SPR of light chain tags; remark: listed apart in the source
[25] = target: CAT-2200 lambda light chain S176K_Y178L (L1), N-terminal FLAG tag; test: LCCA, SPR of light chain tags
[26] = target: Pertuzumab kappa light chain V133G_S176D_T180E (L2), N-terminal HA tag; test: LCCA, SPR of light chain tags; remark: listed apart in the source
[27] = target: CAT-2200 lambda light chain S176K_Y178R (L1), N-terminal FLAG tag; test: LCCA, SPR of light chain tags
[28] = target: SGN-CD19a kappa light chain S131R_V133G_S176R (L2 of designs 3102 and 3113, systems B and C); test: SMCA LC-MS
[29] = target: SGN-CD19a kappa light chain S131R_V133G_S176R (L2 of designs 3102 and 3113, systems B and C); test: SMCA LC-MS; remark: listed apart in the source
[30] = target: SGN-CD19a kappa light chain S131R_V133G_S176R (L2 of designs 3102 and 3113, systems B and C); test: SMCA LC-MS; remark: listed apart in the source
[31] = target: SGN-CD19a kappa light chain S131R_V133G_S176R (L2 of designs 3102 and 3113, systems B and C); test: SMCA LC-MS; remark: listed apart in the source
[32] = target: SGN-CD19a kappa light chain L2 with V133G_S176D_T180E; test: SMCA System B: four chains co-expressed, protein A, LC-MS
[33] = target: SGN-CD19a kappa light chain L2 with V133G_S176D_T180E; test: SMCA System C: four chains co-expressed, protein A, LC-MS
[34] = target: SGN-CD19a kappa light chain L2 with S131R_V133G_S176R; test: SMCA System B: four chains co-expressed, protein A, LC-MS
[35] = target: SGN-CD19a kappa light chain L2 with S131R_V133G_S176R; test: SMCA System C: four chains co-expressed, protein A, LC-MS
[36] = target: SGN-CD19a kappa light chain L2 with V133G_S176D_T178E; test: SMCA System B: four chains co-expressed, protein A, LC-MS
[37] = target: SGN-CD19a kappa light chain L2 with V133G_S176D_T178E; test: SMCA System C: four chains co-expressed, protein A, LC-MS
[38] = target: CR8071 lambda light chain L1 with S176K_Y178K; test: as above
[39] = target: CR8071 lambda light chain L1 with S176K_Y178K; test: as above; remark: listed apart in the source
[40] = target: CR8071 lambda light chain K129T_S180E (L1 of design 3878, system C); test: SMCA LC-MS
[41] = target: Design 3890 L2: SGN-CD19a kappa light chain S121K_Q124R_T178R; test: SMCA: H1, L1, H2, L2 co-expressed, protein A, LC-MS
[42] = target: CAT-2200 lambda light chain S176K_Y178K (L1), N-terminal FLAG tag; test: LCCA, SPR of light chain tags

Substance: CR8071 heavy chain S186K_S188T (H1 of designs 3113 and 3122, system C)
% H1L1 Pairing [4]: 76.7% | Change in % H1L1 Pairing with respect to wild type [4]: -5.6% | % H1L1 Pairing [5]: 65.8% | Change in % H1L1 Pairing with respect to wild type [5]: -16.5%

Substance: SGN-CD19a heavy chain S188K (H2 of design 3025, systems B and C)
% H2L2 Pairing [8]: 87.9% | Change in % H2L2 Pairing with respect to wild type [8]: 33.7% | % H2L2 Pairing [9]: 99.7% | Change in % H2L2 Pairing with respect to wild type [9]: 20.1%

Substance: Design 3890 H1: CR8071 heavy chain A125R_Q179K
% H1L1 Pairing [12]: 98.4% | Change in % H1L1 Pairing with respect to wild type [12]: 30.3%

Substance: Design 3898 H2: SGN-CD19a heavy chain L143E_K145T_Q179E
% H2L2 Pairing [13]: 95.2% | Change in % H2L2 Pairing with respect to wild type [13]: 35.3% | % H2L2 Pairing [14]: 74.5% | Change in % H2L2 Pairing with respect to wild type [14]: 36.9%

Substance: SGN-CD19a heavy chain H2 with L143K
% H2L2 Pairing [15]: 94.3% | Change in % H2L2 Pairing with respect to wild type [15]: 40.1% | % H2L2 Pairing [16]: 99.6% | Change in % H2L2 Pairing with respect to wild type [16]: 20%

Substance: Design 3898 H1: CR8071 heavy chain Q179K
% H1L1 Pairing [17]: 97.4% | Change in % H1L1 Pairing with respect to wild type [17]: 15.1%

Substance: Design 3931 H2: SGN-CD19a heavy chain L124R
% H2L2 Pairing [18]: 99.5% | Change in % H2L2 Pairing with respect to wild type [18]: 19.9% | % H2L2 Pairing [19]: 83.6% | Change in % H2L2 Pairing with respect to wild type [19]: 29.4%

Substance: Pertuzumab Fab heavy chain L124R_Q179K (H2), ABD2-His6 tagged
H2L2:H2L1 normalized median scalar value ln(r1/f1) [22]: 0.67 | H2L2:H2L1 normalized median scalar value ln(r1/f1) [23]: 0.75 | H2L2:H2L1 normalized median scalar value ln(r1/f1) [24]: 0.79 | H2L2:H2L1 normalized median ratio [25]: 34% | H2L2:H2L1 normalized median scalar value ln(r1/f1) [26]: 0.63 | H2L2:H2L1 normalized median ratio [27]: 31%

Substance: SGN-CD19a heavy chain H2 with L124E_K145T_Q179E
% H2L2 Pairing [34]: 77.3% | Change in % H2L2 Pairing with respect to wild type [34]: 39.7% | % H2L2 Pairing [35]: 99.5% | Change in % H2L2 Pairing with respect to wild type [35]: 39.6%

Substance: CR8071 heavy chain Q179K (H1 of design 3878, system C)
% H1L1 Pairing [40]: 99.3% | Change in % H1L1 Pairing with respect to wild type [40]: 17%

Substance: Design 3890 H2: SGN-CD19a heavy chain L143E_K145T_K228D
% H2L2 Pairing [41]: 88.5% | Change in % H2L2 Pairing with respect to wild type [41]: 17.2%

Substance: Pertuzumab Fab heavy chain L124R_S186R (H2), ABD2-His6 tagged
H2L2:H2L1 normalized median scalar value ln(r1/f1) [22]: 0.98 | H2L2:H2L1 normalized median scalar value ln(r1/f1) [23]: 1.06 | H2L2:H2L1 normalized median scalar value ln(r1/f1) [24]: 1.17 | H2L2:H2L1 normalized median ratio [25]: 27% | H2L2:H2L1 normalized median scalar value ln(r1/f1) [26]: 1.21 | H2L2:H2L1 normalized median ratio [42]: 26%

Second part, the substance after the results:

% H2L2 Pairing [1]: 51.3% | Change in % H2L2 Pairing with respect to wild type [1]: -2.9%
Substance: SGN-CD19a heavy chain L143E_K145T_K228D (H2 of design 3890, system B)

% H2L2 Pairing [2]: 89.7% | Change in % H2L2 Pairing with respect to wild type [2]: 52.1% | % H2L2 Pairing [3]: 99.8% | Change in % H2L2 Pairing with respect to wild type [3]: 39.9%
Substance: SGN-CD19a heavy chain K145T_V177D_S188D (H2 of design 3122, systems B and C)

% H1L1 Pairing [6]: 43.9% | Change in % H1L1 Pairing with respect to wild type [6]: -4.5%
Substance: CR8071 heavy chain L143D_K145T (H1 of design 3025, system C)

% H1L1 Pairing [7]: 94.5% | Change in % H1L1 Pairing with respect to wild type [7]: 12.2%
Substance: CR8071 heavy chain H1 with S188K

% H2L2 Pairing [10]: 67.4% | Change in % H2L2 Pairing with respect to wild type [10]: 7.5% | % H2L2 Pairing [11]: 28.7% | Change in % H2L2 Pairing with respect to wild type [11]: -8.9%
Substance: SGN-CD19a heavy chain L143E_K145T_S188L (H2 of design 3878, systems B and C)

% H2L2 Pairing [20]: 94.6% | Change in % H2L2 Pairing with respect to wild type [20]: 40.4% | % H2L2 Pairing [21]: 99.5% | Change in % H2L2 Pairing with respect to wild type [21]: 19.9%
Substance: SGN-CD19a heavy chain H2 with L124R

% H2L2 Pairing [28]: 99.8% | Change in % H2L2 Pairing with respect to wild type [28]: 39.9% | % H2L2 Pairing [29]: 92.8% | Change in % H2L2 Pairing with respect to wild type [29]: 55.2% | % H2L2 Pairing [30]: 90.9% | Change in % H2L2 Pairing with respect to wild type [30]: 53.3% | % H2L2 Pairing [31]: 99.6% | Change in % H2L2 Pairing with respect to wild type [31]: 39.7%
Substance: SGN-CD19a heavy chain L124E_K145T_Q179E (H2 of designs 3102 and 3113, systems B and C)

% H2L2 Pairing [32]: 98.6% | Change in % H2L2 Pairing with respect to wild type [32]: 44.4% | % H2L2 Pairing [33]: 99.5% | Change in % H2L2 Pairing with respect to wild type [33]: 28.2%
Substance: SGN-CD19a heavy chain H2 with L124R_S186R

% H2L2 Pairing [36]: 98.8% | Change in % H2L2 Pairing with respect to wild type [36]: 44.6% | % H2L2 Pairing [37]: 99.6% | Change in % H2L2 Pairing with respect to wild type [37]: 20%
Substance: SGN-CD19a heavy chain H2 with L124R_S186K

% H1L1 Pairing [38]: 41.5% | Change in % H1L1 Pairing with respect to wild type [38]: -6.9% | % H1L1 Pairing [39]: 62.6% | Change in % H1L1 Pairing with respect to wild type [39]: 14.2%
Substance: CR8071 heavy chain H1 with K145T_V177D_S188D
